Molecular target: SKP2 (UniProt Q13309)
Test: co-IP, blot for Myc and p27
Conditions: reference: wild-type p27; sites T187

binding against the reference: lost
Substance: p27 (Kip1) (from UniProt P46527) p27 T187A
